Data taken from paper PMC8511391 (2021).
Ends that are not written are not given here.

What was measured:
Kv1.3 [1] = molecular target: T1, Kv1.3 (Homo sapiens, UniProt P22001); experiment: patch-clamp kinetics (koff/kon)
Kv1.2 [2] = molecular target: T2, Kv1.2 (Homo sapiens, UniProt P16389); experiment: patch-clamp kinetics (koff/kon)
Kv1.3 [3] = molecular target: T1, Kv1.3; experiment: patch-clamp dose-response
Kv1.2 [4] = molecular target: T2, Kv1.2; experiment: patch-clamp dose-response

T2 sequence (P16389 whole entry): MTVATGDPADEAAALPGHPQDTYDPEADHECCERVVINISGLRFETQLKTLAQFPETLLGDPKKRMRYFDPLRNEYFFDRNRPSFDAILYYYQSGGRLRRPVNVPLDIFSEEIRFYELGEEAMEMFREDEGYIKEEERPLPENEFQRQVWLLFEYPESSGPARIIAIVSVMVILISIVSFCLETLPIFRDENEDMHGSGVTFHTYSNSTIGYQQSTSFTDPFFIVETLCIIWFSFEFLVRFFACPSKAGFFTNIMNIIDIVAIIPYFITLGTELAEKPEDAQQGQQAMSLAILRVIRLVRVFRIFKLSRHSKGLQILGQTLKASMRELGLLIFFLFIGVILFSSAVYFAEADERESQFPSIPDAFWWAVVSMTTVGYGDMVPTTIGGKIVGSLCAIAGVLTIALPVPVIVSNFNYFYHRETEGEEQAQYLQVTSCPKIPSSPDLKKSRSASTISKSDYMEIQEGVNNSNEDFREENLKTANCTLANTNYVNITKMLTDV
T1 sequence (P22001 whole entry): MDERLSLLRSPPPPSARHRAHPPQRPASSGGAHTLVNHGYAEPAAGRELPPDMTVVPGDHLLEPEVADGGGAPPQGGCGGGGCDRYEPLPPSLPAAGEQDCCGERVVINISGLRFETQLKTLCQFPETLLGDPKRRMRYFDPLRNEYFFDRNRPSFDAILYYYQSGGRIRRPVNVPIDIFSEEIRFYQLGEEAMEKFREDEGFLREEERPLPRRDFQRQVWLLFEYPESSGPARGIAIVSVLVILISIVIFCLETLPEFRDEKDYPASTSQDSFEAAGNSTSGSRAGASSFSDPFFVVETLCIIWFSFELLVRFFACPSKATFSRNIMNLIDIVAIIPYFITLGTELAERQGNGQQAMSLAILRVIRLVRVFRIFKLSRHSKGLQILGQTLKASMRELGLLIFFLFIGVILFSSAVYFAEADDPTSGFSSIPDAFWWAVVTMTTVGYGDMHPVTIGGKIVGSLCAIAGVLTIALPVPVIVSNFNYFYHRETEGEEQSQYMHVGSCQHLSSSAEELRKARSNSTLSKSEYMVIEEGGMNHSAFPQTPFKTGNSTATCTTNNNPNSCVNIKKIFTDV

| Binder | Kd (Kv1.3 [1]) [nM] | Kd (Kv1.2 [2]) [nM] | Kd (Kv1.3 [3]) [nM] | Kd (Kv1.2 [4]) [nM] |
| --- | --- | --- | --- | --- |
| {Glu-Phe-H2N-H2N-H2N-H2N-H2N-H2N}-LQIEGRTIINVKCTSPKQCLPPCKAQFGQSAGAKCMNGKCKCYPH (not fully specified; ends and bridges not checked) [Margatoxin (TrMgTx)] | 0.0839 | 0.0623 | 0.086 | 0.064 |
| TIINVKCTSPKQCLPPCKAQFGQSAGAKCMNGKCKCYPH [Margatoxin (UrMgTx)] | 0.0522 | 0.015 | 0.05 | 0.014 |
